Results on one substance are retold here after patent US20190328887A1.

This assay deals with human oxytocin receptor (human) (UniProt P30559).
Sequence of UniProt P30559 (P30559 whole entry): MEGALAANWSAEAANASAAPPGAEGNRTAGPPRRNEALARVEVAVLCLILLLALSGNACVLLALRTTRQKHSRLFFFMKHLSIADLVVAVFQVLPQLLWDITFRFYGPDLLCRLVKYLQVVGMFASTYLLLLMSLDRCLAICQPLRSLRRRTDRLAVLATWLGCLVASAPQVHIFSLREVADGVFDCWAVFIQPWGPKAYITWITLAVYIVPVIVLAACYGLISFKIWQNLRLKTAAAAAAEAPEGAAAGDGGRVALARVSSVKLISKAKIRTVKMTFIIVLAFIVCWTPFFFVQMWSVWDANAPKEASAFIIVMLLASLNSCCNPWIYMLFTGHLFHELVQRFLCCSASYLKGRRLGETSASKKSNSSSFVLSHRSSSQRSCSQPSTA

In turn, Oxytocin (peptide) gave an EC50 Ca2+ production of 42 nM.
